Test results from PMC9896067, “Peptide Supramolecular Assembly‐Instructed In Situ Self‐Aggregation for Stratified Targeting Sonodynamic Therapy Enhancement of AIE Luminogens” (Advanced Science, 2022).
Where a SMILES comes first, the peptide text is derived from it. The star is where a group is joined. X1 = O=C(c1cc(OCCCCCC(=O)*)cc(C(=O)c2ccc3ccc4cccc5ccc2c3c45)c1)c1ccc2ccc3cccc4ccc1c2c34

Experiments:
HUVECs = test: CCK‐8 cytotoxicity against HUVECs; assay type: cell-based, human; conditions: without US
inoblast L929 = test: CCK‐8 cytotoxicity against L929; assay type: cell-based; conditions: without US
4T1 cells = test: CCK‐8 viability of 4T1 cells with or without US; assay type: cell-based, murine; conditions: for survival of 4T1 cells: without US irradiation, various concentrations
Protocol: To determine the antitumor efficacy in vitro, the 4T1 cells were divided into the following 6 groups: i) control, ii) control + US, iii) BP + US, iv) PAHN‐3 + US, v) PAHN‐2 + US, and vi) PAHN‐1 + US. Then, the medium were replaced with the fresh medium containing corresponding formulations at different concentrations (30, 60, 120 µM). After 4 h of treatment, the cells were rinsed with PBS and then treated by US at an intensity of 3 W cm^−2 for 4 min. After that, the culture medium was replaced by a fresh serum‐free medium for another 4 h incubation. Finally, a standard CCK‐8 assay was used to evaluate the viability of the cells. The therapeutic effect was also detected by cellular apoptosis assay. In brief, the 4T1 cells were divided into the 6 groups as described above. Next, cells were treated with either BP, PAHN‐3, PAHN‐2, PAHN‐1 at a concentration of 120 µM, or PBS, followed by US irradiation. Finally, these cells were costained by a dye solution of calcein AM (2 µM) and PI (2 µM) or collected for apoptosis analysis using flow cytometry.

4T1 tumor‐bearing mice = test: In vivo and ex vivo fluorescence imaging / biodistribution; conditions: DIR‐labelled, i.v. 2.4 µmol kg^−1, n = 3; for ex vivo distribution in tumor and major organs: 48 h postinjection
Protocol: For the fluorescence imaging and biodistribution assessment in vivo, DIR‐labelled nanosystem was prepared. Briefly, 2 µL of DIR stock solution (2 mM) was added to 1 mL of the PAHN. After stirring for 12 h, the DIR‐labelled nanosystem was finally obtained after dialyzing against deionized water using a dialysis bag (MWCO: 3500 Da) overnight to remove excess DIR. 4T1 tumor‐bearing mice (n = 3) were intravenously injected with DIR‐labelled (Ex/Em = 748 nm/780 nm) PAHN‐1 or PAHN‐2 at a dose of 2.4 µmol kg^−1. Fluorescence images were acquired at preinjection, and 0, 0.5, 1, 2, 6, 24 and 48 h postinjection by using a fluorescence imaging system (CRi Inc., USA). The tumor tissues and major organs were isolated and obtained for ex vivo imaging on the day of animal sacrifice. The corresponding fluorescence intensities were recorded.

healthy mice = test: Biosafety of PAHN in vivo (H&E, routine blood, blood biochemistry); conditions: i.v. 2.4 µmol kg^−1, 1, 3, 7, 14, 28 d postinjection, n = 5
Text: To investigate the short and long‐term biosafety of PAHN‐1 in vivo, PAHN‐1 at a dose of 2.4 µmol kg^−1 was intravenously injected into twenty five healthy mice that were sacrificed at predetermined time points (1, 3, 7, 14, and 28 d postinjection). Five healthy mice that were administrated with the saline solution served as the control group. The blood samples were then collected for biochemistry and routine blood examination. The main organs were stained with H&E.

Row | SMILES | cytotoxicity against HUVECs (HUVECs) | cytotoxicity against L929 (inoblast L929) | cell viability (4T1 cells; 4T1 cells, + US 3 W cm^−2, 4 min after 4 h treatment, 30, 60, 120 µM tested, CCK‐8, n = 3) | viability of cells (4T1 cells; 4T1 cells, without US, concentration of BP up to 120 µM, CCK‐8) | ex vivo distribution in tumor and major organs (4T1 tumor‐bearing mice) | time of maximum fluorescence signal of the tumor region (4T1 tumor‐bearing mice) [h] | hematological indices (routine blood, blood biochemistry) (healthy mice; compared to control) | histopathology of major organs (H&E) (healthy mice) | survival of 4T1 cells (4T1 cells; CCK‐8)
1 | CC(C)C[C@H](NC(=O)[C@H](CCCCN)NC(=O)[C@H](C)NC(=O)[C@H](CC(C)C)NC(=O)[C@H](CCCCN)NC(=O)[C@H](CC(C)C)NC(=O)[C@@H](NC(=O)[C@H](Cc1ccccc1)NC(=O)[C@H](Cc1ccccc1)NC(=O)[C@H](Cc1ccccc1)NC(=O)[C@H](CS)NC(=O)CCCCCOc1cc(C(=O)c2ccc3ccc4cccc5ccc2c3c45)cc(C(=O)c2ccc3ccc4cccc5ccc2c3c45)c1)C(C)C)C(=O)N[C@@H](C)C(=O)N[C@@H](CCCCN)C(=O)N[C@@H](CC(=O)O)C(=O)N[C@@H](CCC(=O)O)C(=O)N[C@H](C(=O)N[C@@H](CC(=O)O)C(=O)N[C@@H](C)C(=O)N[C@@H](CCCCN)C(=O)N[C@@H](CCCNC(=N)N)C(=O)NCC(=O)N[C@@H](C)C(=O)N[C@@H](CCCNC(=N)N)C(=O)N[C@@H](CO)C(=O)N[C@H](C(=O)N[C@@H](C)C(=O)O)[C@@H](C)O)C(C)C [PAHN-1] (X1-CFFFVLKLAKLAKDEVDAKRGARSTA-OH) | negligible cytotoxicity | negligible cytotoxicity | less than 20% | higher than 80% | relatively greater tumor accumulation | 24 | negligible variations | neither significant histopathological changes nor abnormal inflammatory responses | –
2 | CC(C)C[C@H](NC(=O)[C@H](CCCCN)NC(=O)[C@H](C)NC(=O)[C@H](CC(C)C)NC(=O)[C@H](CCCCN)NC(=O)[C@H](CC(C)C)NC(=O)[C@@H](NC(=O)[C@H](Cc1ccccc1)NC(=O)[C@H](Cc1ccccc1)NC(=O)[C@H](Cc1ccccc1)NC(=O)[C@H](CS)NC(=O)CCCCCOc1cc(C(=O)c2ccc3ccc4cccc5ccc2c3c45)cc(C(=O)c2ccc3ccc4cccc5ccc2c3c45)c1)C(C)C)C(=O)N[C@@H](C)C(=O)N[C@@H](CCCCN)C(=O)N[C@@H](CC(=O)O)C(=O)N[C@@H](CCC(=O)O)C(=O)N[C@H](C(=O)N[C@@H](CC(=O)O)C(=O)N[C@@H](C)C(=O)N[C@@H](CCCCN)C(=O)N[C@@H](CC(=O)O)C(=O)NCC(=O)N[C@@H](C)C(=O)N[C@@H](CCC(=O)O)C(=O)N[C@@H](CO)C(=O)N[C@@H](Cc1c[nH]cn1)C(=O)N[C@@H](Cc1c[nH]cn1)C(=O)O)C(C)C [PAHN-2] (X1-CFFFVLKLAKLAKDEVDAKDGAESHH-OH) | – | – | – | – | tended to accumulate in the liver and spleen | – | – | – | no evident change
3 | CC(C)C[C@H](NC(=O)[C@@H](NC(=O)[C@H](Cc1ccccc1)NC(=O)[C@H](Cc1ccccc1)NC(=O)[C@H](Cc1ccccc1)NC(=O)[C@H](CS)NC(=O)CCCCCOc1cc(C(=O)c2ccc3ccc4cccc5ccc2c3c45)cc(C(=O)c2ccc3ccc4cccc5ccc2c3c45)c1)C(C)C)C(=O)N[C@@H](CCCCN)C(=O)N[C@@H](CCCCN)C(=O)N[C@@H](CCCCN)C(=O)N[C@@H](CC(=O)O)C(=O)N[C@@H](CCC(=O)O)C(=O)N[C@H](C(=O)N[C@@H](CC(=O)O)C(=O)N[C@@H](C)C(=O)N[C@@H](CCCCN)C(=O)N[C@@H](CCCNC(=N)N)C(=O)NCC(=O)N[C@@H](C)C(=O)N[C@@H](CCCNC(=N)N)C(=O)N[C@@H](CO)C(=O)N[C@H](C(=O)N[C@@H](C)C(=O)O)[C@@H](C)O)C(C)C [PAHN-3] (X1-CFFFVLKKKDEVDAKRGARSTA-OH) | – | – | – | – | – | – | – | – | no evident change
